Substitutions are numbered along the chain they refer to. Like-named read-outs stand apart in the source and are kept apart here. Blank lines part the entries; values can stand above or below the binder they belong to. No end group written: not given here. *: point of attachment. Biotin = O=C1N[C@H]2[C@H](CS[C@H]2CCCCC(=O)*)N1
Legend:
[1] = target: T1, apelin peptide 1-6 (QRPRLS); assay: competition ELISA, captured mAb, peptide competes with apelin-13-biotin, A405
T1 peptide: QRPRLS

[2] = target: T2, apelin peptide 2-13 (RPRLSHKGPMPF); assay: as above
T2 peptide: RPRLSHKGPMPF

[3] = target: T3, apelin peptide 1-9 (QRPRLSHKG); assay: as above
T3 peptide: QRPRLSHKG

[4] = target: T4, apelin peptide 1-8 (QRPRLSHK); assay: as above
T4 peptide: QRPRLSHK

[5] = target: T5, apelin peptide 1-5 (QRPRL); assay: as above
T5 peptide: QRPRL

[6] = target: T6, apelin peptide 1-7 (QRPRLSH); assay: as above
T6 peptide: QRPRLSH

[7] = target: T7, apelin peptide 1-12 (QRPRLSHKGPMP); assay: as above
T7 peptide: QRPRLSHKGPMP

[8] = target: T8, apelin peptide 1-11 (QRPRLSHKGPM); assay: as above
T8 peptide: QRPRLSHKGPM

[9] = target: T9, apelin 17 (competition peptide 1-17, KFRRQRPRLSHKGPMPF); assay: as above
T9 peptide: KFRRQRPRLSHKGPMPF

1-4 [10] = target: T10, 1-4; assay: as above
T10 construct: also called apelin peptide 1-4 (QRPR)
T10 peptide: QRPR

[11] = target: T11, apelin peptide 1-10 (QRPRLSHKGP); assay: as above
T11 peptide: QRPRLSHKGP

Biotin-APL17 = target: T12, Biotin-APL17; assay: ELISA, peptide on neutravidin plate, mAb 200 ng/ml, A405
T12 peptide: Biotin-KFRRQRPRLSHKGPMPF
Experimental: (§1) FIGS. 1A-1C show binding of anti-apelin mAbs to various biotinylated apelin peptides measured by ELISA. Biotinylated apelin peptides were immobilized on ELISA plates coated with neutravidin and purified recombinant rabbit anti-apelin mAbs were added for binding to the peptides on the plates. The binding was detected by adding a goat anti-rabbit IgG Fc-conjugated to alkaline phosphatase and PNPP substrate, and measured as the absorbance at 405 nm.
(§2) For the binding assay, neutravidin in carbonate coating buffer was coated on high binding ELISA plates at 1 μg/ml overnight. Peptides were added at 4 μg/ml after the plates were blocked with 1% BSA in TBS. After incubation of the plates at room temperature for 60 minutes, the plates were washed and then purified recombinant rabbit antibodies were added at 200 ng/ml. Following rabbit antibody binding to the peptides on the plates at room temperature for 90 minutes, goat anti-rabbit IgG Fc-conjugated to alkaline phosphatase was added, and antibody-antigen binding was detected by adding PNPP substrate and reading absorbance of ELISA plates at 405 nm. Each mAb was assayed in duplicate.

APL17-Biotin = target: T13, APL17-Biotin; assay: as above
T13 peptide: KFRRQRPRLSHKGPMPF-biotin
Experimental: as §1, §2

[12] = target: T14, apelin-13-biotin (…-biotin) (C-terminal biotin); assay: SPR (Biacore), apelin-13-biotin on streptavidin chip
T14 construct: also called APL13-Biotin
Experimental: (§3) Anti-apelin mAbs at four different concentrations (12.5 nM, 25 nM, 50 nM and 100 nM) were captured on the chip surface. The on- and off-rate for antibody-antigen binding were measured, curve fitted and calculated.

[13] = target: T15, alanine scanning peptide 4A (QRPAL); assay: competition ELISA, captured mAb, peptide competes with apelin-13-biotin, A405
T15 peptide: QRPAL
Experimental: (§4) Each peptide or control sample was assayed in duplicate for a given mAb.

[14] = target: T16, alanine scanning peptide 5A (QRPRA); assay: as above
T16 peptide: QRPRA
Experimental: as §4

[15] = target: T17, alanine scanning peptide 1A (ARPRL); assay: as above
T17 peptide: ARPRL
Experimental: as §4

[16] = target: T18, alanine scanning peptide 2A (QAPRL); assay: as above
T18 peptide: QAPRL
Experimental: as §4

[17] = target: T19, alanine scanning peptide 3A (QRARL); assay: as above
T19 peptide: QRARL
Experimental: as §4

[18] = target: T20, pyr-apelin-13-biotin (pE-RPRLSHKGPMPF-biotin) (N-terminal pyroglutamate (pE); C-terminal biotin); assay: SPR (Biacore), pyr-apelin-13-biotin on streptavidin chip
T20 construct: also called pyrAPL13-Biotin
T20 peptide: ERPRLSHKGPMPF
Experimental: as §3

[19] = target: T1, apelin peptide 1-6 (QRPRLS); assay: competition ELISA, captured mAb, peptide competes with apelin-13-biotin, A405
[20] = target: T2, apelin peptide 2-13 (RPRLSHKGPMPF); assay: as above
[21] = target: T3, apelin peptide 1-9 (QRPRLSHKG); assay: as above
[22] = target: T4, apelin peptide 1-8 (QRPRLSHK); assay: as above
[23] = target: T5, apelin peptide 1-5 (QRPRL); assay: as above
[24] = target: T6, apelin peptide 1-7 (QRPRLSH); assay: as above
[25] = target: T7, apelin peptide 1-12 (QRPRLSHKGPMP); assay: as above
[26] = target: T8, apelin peptide 1-11 (QRPRLSHKGPM); assay: as above
[27] = target: T9, apelin 17 (competition peptide 1-17, …); assay: as above
1-4 [28] = target: T10, 1-4; assay: as above
[29] = target: T11, apelin peptide 1-10 (QRPRLSHKGP); assay: as above
[30] = target: T1, apelin peptide 1-6 (QRPRLS); assay: as above
[31] = target: T2, apelin peptide 2-13 (RPRLSHKGPMPF); assay: as above
[32] = target: T3, apelin peptide 1-9 (QRPRLSHKG); assay: as above
[33] = target: T4, apelin peptide 1-8 (QRPRLSHK); assay: as above
[34] = target: T5, apelin peptide 1-5 (QRPRL); assay: as above
[35] = target: T6, apelin peptide 1-7 (QRPRLSH); assay: as above
[36] = target: T7, apelin peptide 1-12 (QRPRLSHKGPMP); assay: as above
[37] = target: T8, apelin peptide 1-11 (QRPRLSHKGPM); assay: as above
[38] = target: T9, apelin 17 (competition peptide 1-17, …); assay: as above
1-4 [39] = target: T10, 1-4; assay: as above
[40] = target: T11, apelin peptide 1-10 (QRPRLSHKGP); assay: as above

binding result [1]: binds
binding result [3]: binds
binding result [4]: binds
binding result [5]: binds
binding result [6]: binds
binding result [7]: binds
binding result [8]: binds
binding result [11]: binds
binding result (Biotin-APL17): no binding (tested: 200 ng/ml)
binding result (APL17-Biotin): no binding (tested: 200 ng/ml)
Kd [12]: 3.14 pM
Kd [18]: 0.326 pM
B1: anti-apelin mAb C7 (antibody, V domains shown)
VH: QSLEESGGRLAKPDETLTLTCTVSGIDLNSHAMDWVRQAPGKGLEWIGVIAPDTRTYYATWARGRFTISKTSSTSVELKMTSLTTEDTATYFCAAYPIEPGANIWGPGTLVTVSS
VL: DPVLTQTPSPVSAPVGGTVTIGCQASESVDYNNQLSWYQQKPGQAPKRLMYYVSTLDSGVPSRFKGSGSGTQFTLTISDLECDDAATYYCQGGYPYNIYPFGGGTEVVVK
notes: recombinant rabbit IgG made in HEK293 cells
binding result [2]: no binding (tested: peptide concentration not stated)
binding result [9]: no binding (tested: peptide concentration not stated)
binding result (1-4 [10]): no binding (tested: peptide concentration not stated)
binding result [13]: no binding (tested: peptide concentration not stated)
binding result [14]: no binding (tested: peptide concentration not stated)
binding result [15]: no binding (tested: peptide concentration not stated)
binding result [16]: no binding (tested: peptide concentration not stated)
binding result [17]: no binding (tested: peptide concentration not stated)

binding result (Biotin-APL17): no binding (tested: 200 ng/ml)
binding result (APL17-Biotin): no binding (tested: 200 ng/ml)
Kd [12]: 48.9 pM
binding result [19]: binds
binding result [21]: binds
binding result [22]: binds
binding result [23]: binds
binding result [24]: binds
binding result [25]: binds
binding result [26]: binds
binding result [29]: binds
Kd [18]: 0.154 pM
B2: anti-apelin mAb C1 (antibody, V domains shown)
VH: QSLEESGGRLVTPGGSLTLTCTVSGFSLSSYAMDWVRQAPGKGLEWIGVIAPNGATYYPTWARGRFTISKTSTTVDLKMTSLTAADTATYFCATYPIDAGANIWGPGTLVTVSS
VL: DPVLTQTPSSVSAAVGGTVTIGCQSSESVDNNNQLSWYQQKSGQPPKRLMYYVSTLDSGVPSRFKGSGSGTHFTLTISGVQCYDAATYYCQGGYISNLYPFGGGTEVVVK
notes: as for B1
binding result [20]: no binding (tested: peptide concentration not stated)
binding result [27]: no binding (tested: peptide concentration not stated)
binding result (1-4 [28]): no binding (tested: peptide concentration not stated)

binding result (Biotin-APL17): no binding (tested: 200 ng/ml)
binding result (APL17-Biotin): no binding (tested: 200 ng/ml)
Kd [12]: 5.96 pM
binding result [30]: binds
binding result [32]: binds
binding result [33]: binds
binding result [34]: binds
binding result [35]: binds
binding result [36]: binds
binding result [37]: binds
binding result [40]: binds
Kd [18]: 0.513 pM
B3: anti-apelin mAb C6 (antibody, V domains shown)
VH: B1 VH with A11V, N29S, S30N, H31Y, D53N, T54R, A59P, S75T, E77D, A95T
VL: B1 VL with A25S, A45P, P95I, Y96S
notes: as for B1
binding result [13]: no binding (tested: peptide concentration not stated)
binding result [14]: no binding (tested: peptide concentration not stated)
binding result [15]: no binding (tested: peptide concentration not stated)
binding result [16]: no binding (tested: peptide concentration not stated)
binding result [17]: no binding (tested: peptide concentration not stated)
binding result [31]: no binding (tested: peptide concentration not stated)
binding result [38]: no binding (tested: peptide concentration not stated)
binding result (1-4 [39]): no binding (tested: peptide concentration not stated)
